Experimental data: patent US20200166530A1 (CASE WESTERN RESERVE UNIVERSITY, published 2020)
Ends that are not written are not given here.

Target: T1, hERα^CDE, multidomain segment of human estrogen receptor alpha containing both DBD and LBD (residues … (human, UniProt P03372 181-552))
T1 construct: Expressed in E. coli from the pMCSG7 vector; It functions as a homodimer; In the SPR assay it was injected as the complex with ERE-DNA and estradiol; also called hERα^CDE-DNA-E2 complex
T1 sequence: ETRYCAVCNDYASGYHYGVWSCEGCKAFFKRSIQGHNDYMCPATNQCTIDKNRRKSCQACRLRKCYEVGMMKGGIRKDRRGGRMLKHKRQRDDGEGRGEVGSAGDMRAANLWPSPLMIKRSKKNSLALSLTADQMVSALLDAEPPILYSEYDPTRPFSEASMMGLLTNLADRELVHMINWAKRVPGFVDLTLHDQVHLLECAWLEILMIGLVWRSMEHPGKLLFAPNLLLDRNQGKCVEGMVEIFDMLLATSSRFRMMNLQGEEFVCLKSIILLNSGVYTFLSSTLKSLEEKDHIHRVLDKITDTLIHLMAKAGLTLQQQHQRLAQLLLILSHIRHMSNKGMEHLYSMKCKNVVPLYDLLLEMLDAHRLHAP
Test: SPR (Biacore T100): biotinylated TIF2 peptide immobilised on an SA chip, hERα^CDE-DNA-E2 complex injected at 0-5 µM, 25° C [panel e]
Method: Measurements were conducted at 25° C. using a Biacore T100 system.

binding result: binds
B1: coactivator TIF2 peptide (KENALLRYLLDKDD) (peptide)
peptide: KENALLRYLLDKDD
modifications: also: biotinylated (position not given here)
notes: For SPR the peptide was biotinylated and captured on an SA sensor chip at 10 RUs; also called biotinylated TIF2 peptide
